Patent US20240002497A1 (Merck Sharp & Dohme, published 2024)
Substitutions are numbered along the chain they refer to. In names and notes the source's numbering stands.

Key:
[1] = biological target: T1, huNav1.7α + β1-β2-β3 (human Nav1.7α co-expressed with human Navβ1, Navβ2 and Navβ3 on cells) (human); assay: binding FACS, CHO FlpIn cells
T1 construct: also called huNav1.7-beta1-beta2-beta3; CHO FlpIn huNav1.7α + β1-β2-β3
How it was run: (§1)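 Flow cytometry read-out of anti-Flag signal on propidium iodide-negative cells measured ISVD binding. Purified FLAG3-tagged ISVD, diluted in PBS with 10% FBS and NaN₃, was applied to the cells for 30 minutes at 4° C.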

[2] = biological target: T2, rhNav1.7α + β1-β2-β3 (rhesus Nav1.7α co-expressed with Navβ1, Navβ2 and Navβ3 on cells) (rhesus monkey (α subunit); β subunits …); assay: binding FACS, CHO FlpIn cells
T2 construct: also called rhNav1.7-beta1-beta2-beta3; CHO FlpIn rhNav1.7α + β1-β2-β3
How it was run: as §1

huNav1.7α+β1 = biological target: T3, huNav1.7α+β1 (human, UniProt Q15858 1-1988; Q07699 19-218); assay: binding FACS, HEKa/β1 cells
T3 construct: also called huNav1.7-beta1; HEKa/β1
Procedure: Binding of the ISVDs to cell-expressed Nav1.7α was detected via murine anti-Flag (Sigma, catalog #F1804). Briefly, cells were resuspended in FACS buffer (PBS, 10% FBS, NaN₃) and transferred to a 96-well V-bottom plate at 1×10^5 cells/well. Purified FLAG3-tagged ISVD was diluted in FACS buffer and added to the cells for 30 minutes at 4° C. […] Prior to the read-out, the samples were resuspended in 1 μg/mL propidium iodide (Sigma, catalog #P4170) to exclude dead cells. Between each step, the cells were centrifuged for 5 minutes at 200 grams and washed with 100 μL/well FACS buffer.

B1: F010302372 (VHH)
VHH: EVQLVESGGGVVQPGGSLRLSCAASGPVFNINRMAWYRQAPGKQRELVAYVTPTGDISYADSVKGRFTISRDRSKRVYLQMNSLRPEDTALYYCRALLQPDVYSITRTYWGQGTLVTVSS
notes: also called F0103387G04(L11V, A12V, K33R, R39Q, S50Y, S56D, T60A, G73R, W78V, S79Y, T83R, V89L, N93R, S100V, N100cI)
For B1, the Bmax [1] was 100%, the EC50 [1] was 17 nM and the Bmax [2] was 100%. For the same binder, the EC50 [2] was 20 nM.

B2: F010302370 (VHH)
VHH: B1 VHH with D101S, V102S
notes: also called F0103387G04(L11V, A12V, K33R, R39Q, S50Y, S56D, T60A, G73R, W78V, S79Y, T83R, V89L, N93R, D99S, N100cI)
Binder B2 has a Bmax [1] of 100%, an EC50 [1] of 9 nM and a Bmax [2] of 100%. It also gave an EC50 [2] of 7.3 nM.

B3: F010302329 (VHH)
VHH: B1 VHH with R73G, V102R, I105N
notes: also called F0103387G04(L11V, A12V, K33R, R39Q, S50Y, S56D, T60A, W78V, S79Y, T83R, V89L, N93R, S100R)
In the case of B3, the Bmax [1] is reported as 94%, the EC50 [1] is reported as 7.6 nM and the Bmax [2] is reported as 44%. It also gave an EC50 [2] of 19 nM.

B4: F010302371 (VHH)
VHH: B1 VHH with D101N
notes: also called F0103387G04(L11V, A12V, K33R, R39Q, S50Y, S56D, T60A, G73R, W78V, S79Y, T83R, V89L, N93R, D99N, S100V, N100cI)
B4 showed a Bmax [1] of 100%, an EC50 [1] of 9.4 nM and a Bmax [2] of 100%. The EC50 [2] was 10 nM.

B5: F010302331 (VHH)
VHH: B1 VHH with V102R, I105N
notes: also called F0103387G04(L11V, A12V, K33R, R39Q, S50Y, S56D, T60A, G73R, W78V, S79Y, T83R, V89L, N93R, S100R)
Binder B5 has a Bmax [1] of 90%, an EC50 [1] of 6 nM and a Bmax [2] of 38%. It also gave an EC50 [2] of 24 nM.

B6: F010302384 (VHH)
VHH: B1 VHH with D72G, R73G, D101S, V102S
notes: also called F0103387G04(L11V, A12V, K33R, R39Q, S50Y, S56D, T60A, D72G, W78V, S79Y, T83R, V89L, N93R, D99S, N100cI)
For B6, the Bmax [1] was 100%, the EC50 [1] was 6.2 nM and the Bmax [2] was 100%. It also gave an EC50 [2] of 4.3 nM.

B7: F010302330 (VHH)
VHH: B1 VHH with R73A, V102R, I105N
notes: also called F0103387G04(L11V, A12V, K33R, R39Q, S50Y, S56D, T60A, G73A, W78V, S79Y, T83R, V89L, N93R, S100R)
In the case of B7, the Bmax [1] is reported as 93%, the EC50 [1] is reported as 10 nM and the Bmax [2] is reported as 23%. The EC50 [2] was 200 nM.

B8: F010302386 (VHH)
VHH: B1 VHH with D72Q, R73G, D101S, V102S
notes: also called F0103387G04(L11V, A12V, K33R, R39Q, S50Y, S56D, T60A, D72Q, W78V, S79Y, T83R, V89L, N93R, D99S, N100cI)
In the case of B8, the Bmax [1] is reported as 100%, the EC50 [1] is reported as 7.3 nM and the Bmax [2] is reported as 100%. It also gave an EC50 [2] of 4.9 nM.

B9: F010302327 (VHH)
VHH: B1 VHH with R73A, D101R, V102S, I105N
notes: also called F0103387G04(L11V, A12V, K33R, R39Q, S50Y, S56D, T60A, G73A, W78V, S79Y, T83R, V89L, N93R, D99R)
With B9 the Bmax [1] was 87%, the EC50 [1] was 7 nM and the Bmax [2] was 7%. The EC50 [2] was 93 nM.

B10: F010301055 (VHH)
VHH: EVQLVESGGGLVQPGGSLRLSCAASGMLFNANTQGWYRQAPGKQRELVAFIFWGGYVNYVDSVKGRFTISRDNAKRTMYLQMNSLKPEDSAIYYCSLSRYLGQGTLVTVSS
notes: vs F0103265A11: S53W, T57V
With B10 the “Bmax relative to '535” value (huNav1.7α+β1) was 117% and the EC50 (huNav1.7α+β1) was 4.4 nM.

B11: F010301138 (VHH)
VHH: B10 VHH with N30Y, W53S, V57T, V60N, S96A, L101Q
notes: vs F0103265A11: N30Y, V60N, S93A, L103Q
B11 was tested, and the “Bmax relative to '535” value (huNav1.7α+β1) was 107% and the EC50 (huNav1.7α+β1) was 9.7 nM.

B12: F010301059 (VHH)
VHH: B10 VHH with W53S, V60N, S96A, L101Q
notes: vs F0103265A11: T57V, V60N, S93A, L103Q
B12 was tested, and the “Bmax relative to '535” value (huNav1.7α+β1) was 99% and the EC50 (huNav1.7α+β1) was 5.4 nM.

B13: F010301175 (VHH)
VHH: B10 VHH with A31R, W53S, V57T, N58T
notes: vs F0103265A11: A31R, N58T
In the case of B13, the “Bmax relative to '535” value (huNav1.7α+β1) is reported as 111% and the EC50 (huNav1.7α+β1) is reported as 5.4 nM.

B14: F010301099 (VHH)
VHH: B10 VHH with W53S, Y56W, N58T
notes: vs F0103265A11: Y56W, T57V, N58T
B14 was tested, and the “Bmax relative to '535” value (huNav1.7α+β1) was 87% and the EC50 (huNav1.7α+β1) was 7.4 nM.

B15: F010301113 (VHH)
VHH: B10 VHH with A31R, W53S, V57T, V60N, R99V, L101Q
notes: vs F0103265A11: A31R, V60N, R101V, L103Q
B15 was tested, and the “Bmax relative to '535” value (huNav1.7α+β1) was 111% and the EC50 (huNav1.7α+β1) was 5.7 nM.

B16: F010301139 (VHH)
VHH: B10 VHH with A31R, I51W, W53S, V60N, L101Q
notes: vs F0103265A11: A31R, I51W, T57V, V60N, L103Q
For B16, the “Bmax relative to '535” value (huNav1.7α+β1) was 117% and the EC50 (huNav1.7α+β1) was 4.7 nM.

B17: F010301111 (VHH)
VHH: B10 VHH with W53S, V60N, S96A
notes: vs F0103265A11: T57V, V60N, S93A
With B17 the “Bmax relative to '535” value (huNav1.7α+β1) was 99% and the EC50 (huNav1.7α+β1) was 5.4 nM.

B18: F010301126 (VHH)
VHH: B10 VHH with A31R, W53S, N58T, V60N
notes: vs F0103265A11: A31R, T57V, N58T, V60N
B18 was tested, and the “Bmax relative to '535” value (huNav1.7α+β1) was 118% and the EC50 (huNav1.7α+β1) was 5.6 nM.

B19: F010301188 (VHH)
VHH: B10 VHH with A31R, W53S, V57T, V60N, L101Q
notes: vs F0103265A11: A31R, V60N, L103Q
B19 was tested, and the “Bmax relative to '535” value (huNav1.7α+β1) was 104% and the EC50 (huNav1.7α+β1) was 5.1 nM.

B20: F010301232 (VHH)
VHH: B10 VHH with A31R, W53S, V57T, N58T, S96A, L101Q
notes: vs F0103265A11: A31R, N58T, S93A, L103Q
B20 was tested, and the “Bmax relative to '535” value (huNav1.7α+β1) was 112% and the EC50 (huNav1.7α+β1) was 9.3 nM.
